Experimental data from patent US20100130721A1.

B1: fusion protein PG1 (designed binder)
chain: AYRLILNGRTLRGETTTEAVDAATAERVFRQYANDNGVDGEWTYDDATRTFTVTERPEVIDASELTPAVTGGGGCADDDDDDHHHHHH
B2: fusion protein PG2 (designed binder)
chain: AYRLILNGRTLRGETTTEAVDAATAERVFRQYANDNGVDGEWTYDDATRTFTVTERPEVIDASELTPAVTPGAYRLILNGRTLRGETTTEAVDAATAERVFRQYANDNGVDGEWTYDDATRTFTVTERPEVIDASELTPAVTGGGGCADDDDDDHHHHHH
B3: fusion protein PG3 (designed binder)
chain: AYRLILNGRTLRGETTTEAVDAATAERVFRQYANDNGVDGEWTYDDATRTFTVTERPEVIDASELTPAVTPGAYRLILNGRTLRGETTTEAVDAATAERVFRQYANDNGVDGEWTYDDATRTFTVTERPEVIDASELTPAVTPGAYRLILNGRTLRGETTTEAVDAATAERVFRQYANDNGVDGEWTYDDATRTFTVTERPEVIDASELTPAVTGGGGCADDDDDDHHHHHH
B4: fusion protein PL1 (designed binder)
chain: ATIRANLIYADGRTQTAEFRGTFEEATAEAYRYADLLARENGRYTVDVADRGYTLNIRFAGGGGGCADDDDDDHHHHHH
B5: fusion protein PL2 (designed binder)
chain: ATIRANLIYADGRTQTAEFRGTFEEATAEAYRYADLLPRENGRYTVDVADRGYTLNIRFAPGATIRANLIYADGRTQTAEFRGTFEEATAEAYRYADLLPRENGRYTVDVADRGYTLNIRFAGGGGGCADDDDDDHHHHHH
B6: fusion protein PL3 (designed binder)
chain: ATIRANLIYADGRTQTAEFRGTFEEATAEAYRYADLLPRENGRYTVDVADRGYTLNIRFAPGATIRANLIYADGRTQTAEFRGTFEEATAEAYRYADLLPRENGRYTVDVADRGYTLNIRFAPGATIRANLIYADGRTQTAEFRGTFEEATAEAYRYADLLPRENGRYTVDVADRGYTLNIRFAGGGGGCADDDDDDHHHHHH

target: human polyclonal IgG (human); assay: SPR (Biacore), His-tagged fusion protein captured on Ni-NTA chip, human IgG injected

Compared with B1, B2 is 3.3-fold lower in Kd: 0.384 nM for the first, 0.115 nM for the second.

Compared with B3, B4 is 30-fold higher in Kd: 0.068 nM for the first, 2.06 nM for the second.

Compared with B5, B6 is 1.7-fold lower in Kd: 1.34 nM for the first, 0.788 nM for the second. The second binds more tightly here.

First: B1
Second: B2
The koff of the first is 1.5-fold higher: 0.000154 s⁻¹ for the first, 0.0001 s⁻¹ for the second.

Compared with B3, B4 is 4.1-fold higher in koff: 7.63e-05 s⁻¹ for the first, 0.000312 s⁻¹ for the second.

B5 and B6 are within 1.5-fold of each other in koff: 0.000264 s⁻¹ for the first, 0.000237 s⁻¹ for the second.

Going from B1 to B2, the kon rises from 401000 M⁻¹ s⁻¹ to 864000 M⁻¹ s⁻¹ (2.2-fold).

Going from B3 to B4, the kon falls from 1.12e+06 M⁻¹ s⁻¹ to 151000 M⁻¹ s⁻¹ (7.4-fold).

B5 and B6 are within 1.5-fold of each other in kon: 246000 M⁻¹ s⁻¹ for the first, 301000 M⁻¹ s⁻¹ for the second.
